Where a chain is given by its changes, count along the chain named. Names may count otherwise. Values belong to the binder of their own block, whether it stands above or below them.
Columns and labels:
[1] = target: T1, full-length human C1s (produced in house) (human, UniProt P09871 16-688); experiment: ELISA, plate coated with 200 ng/well full-length HuC1s, OD450nm
T1 construct: Called full-length; Partly auto-cleaved at R422-I423 on blots; also called HuC1s; Hu C1s
T1 sequence: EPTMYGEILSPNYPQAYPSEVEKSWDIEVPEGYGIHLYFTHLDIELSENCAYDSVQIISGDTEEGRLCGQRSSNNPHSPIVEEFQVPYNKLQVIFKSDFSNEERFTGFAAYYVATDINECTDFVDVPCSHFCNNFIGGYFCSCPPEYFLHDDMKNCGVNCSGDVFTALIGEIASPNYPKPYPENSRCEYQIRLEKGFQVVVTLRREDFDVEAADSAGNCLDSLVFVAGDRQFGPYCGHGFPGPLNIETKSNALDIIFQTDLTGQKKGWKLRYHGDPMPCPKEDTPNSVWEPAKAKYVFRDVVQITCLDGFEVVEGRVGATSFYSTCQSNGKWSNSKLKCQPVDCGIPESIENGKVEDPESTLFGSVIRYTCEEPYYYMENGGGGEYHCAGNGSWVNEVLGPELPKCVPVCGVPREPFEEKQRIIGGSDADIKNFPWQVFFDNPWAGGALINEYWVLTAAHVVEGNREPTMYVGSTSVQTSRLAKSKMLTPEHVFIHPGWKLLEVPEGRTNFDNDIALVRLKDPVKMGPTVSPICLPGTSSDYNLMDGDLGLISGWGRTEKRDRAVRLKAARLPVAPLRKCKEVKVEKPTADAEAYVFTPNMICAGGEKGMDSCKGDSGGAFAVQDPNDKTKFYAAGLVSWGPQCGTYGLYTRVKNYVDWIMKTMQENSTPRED
Method: (§1) ELISA was carried out by first coating 96-well plates with 200 ng/well of full-length or truncated C1s proteins overnight. The next morning, plates were blocked with SuperBlock T20 blocking buffer (Thermo Scientific 37536) for 1 h with gentle shaking. Then, various concentrations of anti-C1s antibodies diluted in SuperBlock T20 blocking buffer were added to the plates and incubated for 1 h with gentle shaking. Mouse IgG (Sigma-Aldrich 15381) and human IgG1 (BioXCell BP0297) were used as negative controls. The plates were washed before incubating with HRP conjugated secondary antibodies diluted in SuperBlock T20 blocking buffer (goat anti-mouse IgG (H+L) cross-adsorbed secondary antibody HRP (Invitrogen G-21040) or goat anti-human IgG antibody, HRP conjugate (Millipore AP309P)) for 1 h with gentle shaking. At last, the plates were washed and color developed with ELISA liquid HRP substrate (Sigma-Aldrich), followed by stopping the reaction with addition of 1M H₂SO₄ in the same volume as the ELISA liquid substrate. Bound antibody was measured by absorbance at OD₄₅₀ₙₘ.

[2] = target: T2, human C1s mutant M17 (N380H) (human, UniProt P09871 16-688); experiment: ELISA, plate coated with human C1s mutant M17: N380H, OD450nm
T2 construct: The entry is the mutant itself
T2 sequence: T1 sequence with N380H
Method: as §1
(§2) Binding of anti-C1s antibodies to mutants M1-M20 of human C1s was measured by ELISA as described in Example 4, and results are shown in FIGS. 6B-6U. All anti-C1s humanized variants including hz2-7(H1L2), hz2-8(H1L2 G80A) and hz2-8(H1L2 G80A/T82A) maintained strong binding properties to the majority (16 out of 20) of C1s mutants including M1 (FIG. 6B), M2 (FIG. 6C), M3 (FIG. 6D). M4 (FIG. 6E), M7 (FIG. 6H), M8 (FIG. 6I), M10 (FIG. 6K), M11 (FIG. 6L), M12 (FIG. 6M), M13 (FIG. 6N), M15 (FIG. 6P), M16 (FIG. 6Q), M17 (FIG. 6R), M18 (FIG. 6S), M19 (FIG. 6T) and M20 (FIG. 6U).

[3] = target: T3, human C1s mutant M18 (V288T) (human, UniProt P09871 16-688); experiment: ELISA, plate coated with human C1s mutant M18: V288T, OD450nm
T3 construct: The entry is the mutant itself
T3 sequence: T1 sequence with V288T
Method: as §1, §2

B1: Anti-C1s antibody 2-7 (antibody, human IgG1, kappa, V domains shown)
VH: EVKLEESGGGLVPPGGSMKLSCVASGFTFSNYFMNWVRQSPEKGLEWVAEIRLKFTNYATHYAESVEGRFTISRDDSKSSVYLQMNNLRAEDTGIYYCTRDYGSRNGYFDYWGQGTTLTVSS
VL: DIVMTQAAPSVPVTPGESVSISCRSSKSLLHSNGNTFLYWFLQRPGQSPQLLIYRMSNLASGVPDRFSGSGSGTAFTLRVSRVEAEDVGIYYCMQHLEYPYTFGGGTKLEIKT
notes: the HC/LC entries may hold it too; also called clone 2-7
- EC50 [1]: 6 ng/mL

B2: Anti-C1s antibody hz2-8 (H1L2 G80A) (antibody, V domains shown)
VH: QVQLVQSGAEVKKPGASVKVSCKASGFNIKEYYMHWVRQAPEQGLEWMGWIDPENADTIYAQKFQGRVTITADTSTNTAYMELSSLRSEDTAVYYCARSRLFFAYWGQGTLVTVSS
VL: DIQMTQSPKSLSASVGDRVTITCRASQDVRTALDWYQQKPGQSPKLLIYSASYRYSGVPSRFSGSGSGTDFTLTISSLQPEDFATYYCQQQYTTPYTFGQGTKLEIKR
notes: Humanized variant with G80A in HC CDR2 (already in the entry), human IgG1 / kappa
- EC50 [2]: 5 ng/mL
- EC50 [3]: 3 ng/mL

B5: Anti-C1s antibody 2-8 (antibody, V domains shown)
VH: EVQLQQSGAELVRPGALVKLSCKASGFNIKEYYMHWVKQRPEQGLEWIGWIDPENGDTIYDPKFQGKASITADTSSNTAYLQLSSLTSEDTAVYYCARSRLFFAYWGQGTLVTVSA
VL: DIVMTQSHKFMSTSVGDRVSFTCKASQDVRTAVDWYQQKPGQSPKLLIYSASYRYTGVPDRFTGTGSGTDFTFTISSVQAEDLAVYFCQQQYTTPYTFGGGTKLEIKT
notes: the HC/LC entries may hold it too; also called clone 2-8
- EC50 [1]: 8 ng/mL

Results, then the binder that gave them:

- EC50 [2]: 8 ng/mL
- EC50 [3]: 4 ng/mL
B3: Anti-C1s antibody hz2-8 (H1L2 G80A/T82A) (antibody, V domains shown)
VH: B2 VH with T58A
VL: B2 VL
notes: Humanized variant with G80A and T82A in HC CDR2 (already in the entry), human IgG1 / kappa

- EC50 [2]: 4 ng/mL
- EC50 [1]: 5 ng/mL
- EC50 [3]: 5 ng/mL
B4: Anti-C1s antibody hz2-7(H1L2) (antibody, V domains shown)
VH: EVQLLESGGGLVQPGGSLRLSCAASGFTFSNYFMNWVRQAPGKGLEWVSEIRLKFTNYATHYADSVKGRFTISRDDSKSTLYLQMNSLRAEDTAVYYCTRDYGSRNGYFDYWGQGTLVTVSS
VL: DIVMTQTPLSLPVTPGEPASISCRSSKSLLHSNGNTFLYWFLQKPGQSPQLLIYRMSNLASGVPDRFSGSGSGTDFTLKISRVEAEDVGVYYCMQHLEYPYTFGGGTKLEIKR
notes: Humanized, human IgG1 / kappa; also called hz2-7(1L2)
